The results in this text go back to publication PMC7824358, “The Influence of the Mixed DPC:SDS Micelle on the Structure and Oligomerization Process of the Human Cystatin C” (Membranes, 2020).

The target of data set [1] is human cystatin C V57P variant (human) (UniProt P01034). The experiment in a line: SEC; analytical gel filtration, Superdex 75 PC 3.2/30, eluted with PBS; protein 30 μM in PBS incubated 24 h at 22 °C with dilution series of DPC:SDS (5:1) mixed micelle, DPC or SDS; dimer retention ca. 13.5 min, monomer ca. 16 min; dimer to monomers. (In general: In gel filtration, larger molecules generally elute earlier.)

Data set [2] deals with the molecule itself. The experiment in a line: SEC; hCC WT incubated 24 h in 25 mM sodium acetate buffer pH 4.0, 150 mM NaCl, 1 mM benzamidine hydrochloride; dimer separated from monomer on Superdex 75 10/300 GL; monomer to dimer.

What is called stoichiometry N is a count of units in the complex or per binding partner. With “human cystatin C V57P variant (from UniProt P01034 27-146) (natural protein)”, the stoichiometry N in data set [1] stood at 2.

B1: human cystatin C (hCC) wild-type (natural protein, UniProt P01034 27-146, looked up)
chain: SSPGKPPRLVGGPMDASVEEEGVRRALDFAVGEYNKASNDMYHSRALQVVRARKQIVAGVNYFLDVELGRTTCTKTQPNLDNCPFHDQPHLKRKAFCSFQIYAVPWQGTMTLSKSTCQDA
notes: human cystatin C, expressed from the pHD313 vector behind the E. coli OmpA signal peptide; Used as a monomer sample and as a dimer sample made by incubation at pH 4.0 and separated by SEC; also called hCC WT; WT
In the case of B1, the “stoichiometry N” value in data set [2] was determined as 2.
